The assay has as its target mutant pro-urokinase (human) (UniProt P00749). Briefly: cell-based or functional assay.

The source of these data is EP0691409B1.

Turning to “mixture of human MMP2 and MMP9, activated with APMA”, the activated MMP (ΔA/h^2*1000); time 0 h, 0.15 µM modified pro-urokinase was < 0.05 ΔA/h^2·1000; the activated MMP (ΔA/h^2*1000); time 1 h is 0.3 ΔA/h^2·1000; the activated MMP (ΔA/h^2*1000); time 2 h is < 0.05 ΔA/h^2·1000; the activated MMP (ΔA/h^2*1000); time 3 h is < 0.05 ΔA/h^2·1000. Also, the activated MMP (ΔA/h^2*1000); time 4 h was 1.1 ΔA/h^2·1000, the activated MMP (ΔA/h^2*1000); time 6.5 h is 1.3 ΔA/h^2·1000, the activated MMP (ΔA/h^2*1000); time 24 h is 3.6 ΔA/h^2·1000 and the activated MMP (ΔA/h^2*1000); time 31 h is 35.9 ΔA/h^2·1000. Besides, the activated MMP (ΔA/h^2*1000); time 48 h is 48.9 ΔA/h^2·1000 and the activated MMP (ΔA/h^2*1000); time 48 h + EDTA is < 0.05 ΔA/h^2·1000.
Regarding “mixture of human MMP2 and MMP9, not activated”, the not activated MMP (ΔA/h^2*1000); time 0 h, 0.15 µM modified pro-urokinase is < 0.05 ΔA/h^2·1000; the not activated MMP (ΔA/h^2*1000); time 1 h is < 0.05 ΔA/h^2·1000; the not activated MMP (ΔA/h^2*1000); time 2 h was < 0.05 ΔA/h^2·1000; the not activated MMP (ΔA/h^2*1000); time 3 h is < 0.05 ΔA/h^2·1000. The not activated MMP (ΔA/h^2*1000); time 4 h was < 0.05 ΔA/h^2·1000, the not activated MMP (ΔA/h^2*1000); time 6.5 h is < 0.05 ΔA/h^2·1000, the not activated MMP (ΔA/h^2*1000); time 24 h is 1 ΔA/h^2·1000 and the not activated MMP (ΔA/h^2*1000); time 31 h was 2.1 ΔA/h^2·1000. Also, the not activated MMP (ΔA/h^2*1000); time 48 h was 14 ΔA/h^2·1000 and the not activated MMP (ΔA/h^2*1000); time 48 h + EDTA is < 0.05 ΔA/h^2·1000.
